Results on 3 molecules are retold here after US20200377555A1.

What all share (conditions): remark: other sources report otherwise
Assay [1] concerns the target T1, UFV5367 (influenza A H1N1 A/Brisbane/59/07), A8C8J4.
For assay [2], the target named is T1, UFV5367 (influenza A H1N1 …). The source holds these as a separate data set.
Assay [3] concerns the target Full length HA H1N1 A/Brisbane/59/07 (influenza A H1N1 A/Brisbane/59/07), B4URD6.
Assay [4] addresses T1, UFV5367 (influenza A H1N1 …). Description: ELISA, polypeptide coated, antibody titrated; average of 3 independent assays.
In assay [5] the target is UFV180499 H5 A/Hong Kong/156/97 (influenza A H5 A/Hong Kong/156/97).

B1: Fab fragment of mAb CR6261 (Fab, V domains shown)
VH: EVQLVESGAEVKKPGSSVKVSCKASGGPFRSYAISWVRQAPGQGPEWMGGIIPIFGTTKYAPKFQGRVTITADDFAGTVYMELSSLRSEDTAMYYCAKHMGYQVRETMDVWGKGTTVTVSS
VL: QSVLTQPPSVSAAPGQKVTISCSGSSSNIGNDYVSWYQQLPGTAPKLLIYDNNKRPSGIPDRFSGSKSGTSATLGITGLQTGDEANYYCATWDRRPTAYVVFGGGTKLTVLG
B1: the MW polypeptide + Fab6261 (kDa) in assay [1] amounted to 204 kDa.

B2: CR6261 (antibody, V domains shown)
VH: EVQLVESGAEVKKPGSSVKVSCKASGGPFRSYAISWVRQAPGQGPEWMGGIIPIFGTTKYAPKFQGRVTITADDFAGTVYMELSSLRSEDTAMYYCAKHMGYQVRETMDVWGKGTTVTVSS
VL: QSVLTQPPSVSAAPGQKVTISCSGSSSNIGNDYVSWYQQLPGTAPKLLIYDNNKRPSGIPDRFSGSKSGTSATLGITGLQTGDEANYYCATWDRRPTAYVVFGGGTKLTVLG
With B2, the Kd – broadly, the constant that tells how readily two partners part at equilibrium – turned out to be 0.48 nM in assay [2] and 1.1 nM in assay [3]. For the same molecule, in assay [4], the EC50 – broadly, the concentration giving half of the maximal effect – was found to be 0.417 nM.

B3: CR9114 (antibody, V domains shown)
VH: QVQLVQSGAEVKKPGSSVKVSCKSSGGTSNNYAISWVRQAPGQGLDWMGGISPIFGSTAYAQKFQGRVTISADIFSNTAYMELNSLTSEDTAVYFCARHGNYYYYSGMDVWGQGTTVTVSS
VL: SYVLTQPPAVSGTPGQRVTISCSGSDSNIGRRSVNWYQQFPGTAPKLLIYSNDQRPSVVPDRFSGSKSGTSASLAISGLQSEDEAEYYCAAWDDSLKGAVFGGGTQLTVL
As to B3, the 50% effective concentration (EC50 (read off the curve)) (usually the concentration that produces a half-maximal response) in assay [5] turned out to be 0.02 µg/mL.
